Source: IntAct's records for PubMed 28712572

Molecular target: gbrap_human GABARAP (UniProt O95166)
Sequence (O95166 whole entry): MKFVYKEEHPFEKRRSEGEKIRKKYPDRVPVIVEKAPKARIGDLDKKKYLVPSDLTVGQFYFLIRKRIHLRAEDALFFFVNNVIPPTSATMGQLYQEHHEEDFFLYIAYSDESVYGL

Substance	effect of a mutation on the interaction
Pericentriolar material 1 protein (Homo sapiens), Q15154 S1958Y	with no effect
Pericentriolar material 1 protein (Homo sapiens), Q15154 T1974A	with no effect
Pericentriolar material 1 protein (Homo sapiens), Q15154 T1974C	with no effect
Pericentriolar material 1 protein (Homo sapiens), Q15154 T1974D	with no effect
Pericentriolar material 1 protein (Homo sapiens), Q15154 T1974E	with no effect
Pericentriolar material 1 protein (Homo sapiens), Q15154 T1974F	with no effect
Pericentriolar material 1 protein (Homo sapiens), Q15154 T1974G	with no effect
Pericentriolar material 1 protein (Homo sapiens), Q15154 T1974H	with no effect
Pericentriolar material 1 protein (Homo sapiens), Q15154 T1974I	with no effect
Pericentriolar material 1 protein (Homo sapiens), Q15154 T1974K	with no effect
Pericentriolar material 1 protein (Homo sapiens), Q15154 T1974L	with no effect
Pericentriolar material 1 protein (Homo sapiens), Q15154 T1974M	with no effect
Pericentriolar material 1 protein (Homo sapiens), Q15154 T1974N	with no effect
Pericentriolar material 1 protein (Homo sapiens), Q15154 T1974P	with no effect
Pericentriolar material 1 protein (Homo sapiens), Q15154 T1974Q	with no effect
Pericentriolar material 1 protein (Homo sapiens), Q15154 T1974R	with no effect
Pericentriolar material 1 protein (Homo sapiens), Q15154 T1974S	with no effect
Pericentriolar material 1 protein (Homo sapiens), Q15154 T1974V	with no effect
Pericentriolar material 1 protein (Homo sapiens), Q15154 T1974W	with no effect
Pericentriolar material 1 protein (Homo sapiens), Q15154 T1974Y	with no effect

Substance	effect of a mutation on the interaction
Pericentriolar material 1 protein (Homo sapiens), Q15154 V1964A	disrupting interaction strength
Pericentriolar material 1 protein (Homo sapiens), Q15154 V1964C	with no effect
Pericentriolar material 1 protein (Homo sapiens), Q15154 V1964D	decreasing interaction strength
Pericentriolar material 1 protein (Homo sapiens), Q15154 V1964E	with no effect
Pericentriolar material 1 protein (Homo sapiens), Q15154 V1964F	with no effect
Pericentriolar material 1 protein (Homo sapiens), Q15154 V1964G	disrupting interaction strength
Pericentriolar material 1 protein (Homo sapiens), Q15154 V1964H	disrupting interaction strength
Pericentriolar material 1 protein (Homo sapiens), Q15154 V1964I	with no effect
Pericentriolar material 1 protein (Homo sapiens), Q15154 V1964K	disrupting interaction strength
Pericentriolar material 1 protein (Homo sapiens), Q15154 V1964L	decreasing interaction strength
Pericentriolar material 1 protein (Homo sapiens), Q15154 V1964M	disrupting interaction strength
Pericentriolar material 1 protein (Homo sapiens), Q15154 V1964N	disrupting interaction strength
Pericentriolar material 1 protein (Homo sapiens), Q15154 V1964P	disrupting interaction strength
Pericentriolar material 1 protein (Homo sapiens), Q15154 V1964Q	disrupting interaction strength
Pericentriolar material 1 protein (Homo sapiens), Q15154 V1964R	disrupting interaction strength
Pericentriolar material 1 protein (Homo sapiens), Q15154 V1964S	disrupting interaction strength
Pericentriolar material 1 protein (Homo sapiens), Q15154 V1964T	disrupting interaction strength
Pericentriolar material 1 protein (Homo sapiens), Q15154 V1964W	disrupting interaction strength
Pericentriolar material 1 protein (Homo sapiens), Q15154 V1964Y	decreasing interaction strength
Pericentriolar material 1 protein (Homo sapiens), Q15154 V1966A	disrupting interaction strength

Substance	effect of a mutation on the interaction
Pericentriolar material 1 protein (Homo sapiens), Q15154 V1966C	disrupting interaction strength
Pericentriolar material 1 protein (Homo sapiens), Q15154 V1966D	disrupting interaction strength
Pericentriolar material 1 protein (Homo sapiens), Q15154 V1966E	disrupting interaction strength
Pericentriolar material 1 protein (Homo sapiens), Q15154 V1966F	with no effect
Pericentriolar material 1 protein (Homo sapiens), Q15154 V1966G	disrupting interaction strength
Pericentriolar material 1 protein (Homo sapiens), Q15154 V1966H	disrupting interaction strength
Pericentriolar material 1 protein (Homo sapiens), Q15154 V1966I	with no effect
Pericentriolar material 1 protein (Homo sapiens), Q15154 V1966K	disrupting interaction strength
Pericentriolar material 1 protein (Homo sapiens), Q15154 V1966L	with no effect
Pericentriolar material 1 protein (Homo sapiens), Q15154 V1966M	disrupting interaction strength
Pericentriolar material 1 protein (Homo sapiens), Q15154 V1966N	disrupting interaction strength
Pericentriolar material 1 protein (Homo sapiens), Q15154 V1966P	disrupting interaction strength
Pericentriolar material 1 protein (Homo sapiens), Q15154 V1966Q	disrupting interaction strength
Pericentriolar material 1 protein (Homo sapiens), Q15154 V1966R	disrupting interaction strength
Pericentriolar material 1 protein (Homo sapiens), Q15154 V1966S	disrupting interaction strength
Pericentriolar material 1 protein (Homo sapiens), Q15154 V1966T	disrupting interaction strength
Pericentriolar material 1 protein (Homo sapiens), Q15154 V1966W	disrupting interaction strength
Pericentriolar material 1 protein (Homo sapiens), Q15154 V1966Y	decreasing interaction strength

Molecular target: gbrap_human GABARAP (UniProt O95166)
Remark: another data set of the same source

Substance	effect of a mutation on the interaction
Pericentriolar material 1 protein (Homo sapiens), Q15154 D1962A;F1963A;V1966A	decreasing interaction strength

Molecular target: gbrap_human GABARAP (UniProt O95166)
Remark: another data set of the same source

Substance	effect of a mutation on the interaction
Pericentriolar material 1 protein (Homo sapiens), Q15154 D1962A;F1963A;V1966A	with no effect
